According to patent US20250051476A1 (ABDERA THERAPEUTICS, published 2025):

T1: DLL3 on cells (SHP-77, NCI-H82, HEK-DLL3, membrane proteome array cells) (human, UniProt Q9NYJ7 27-618)
T1 construct: whole, on cells; also called hDLL3
T1 sequence (looked up): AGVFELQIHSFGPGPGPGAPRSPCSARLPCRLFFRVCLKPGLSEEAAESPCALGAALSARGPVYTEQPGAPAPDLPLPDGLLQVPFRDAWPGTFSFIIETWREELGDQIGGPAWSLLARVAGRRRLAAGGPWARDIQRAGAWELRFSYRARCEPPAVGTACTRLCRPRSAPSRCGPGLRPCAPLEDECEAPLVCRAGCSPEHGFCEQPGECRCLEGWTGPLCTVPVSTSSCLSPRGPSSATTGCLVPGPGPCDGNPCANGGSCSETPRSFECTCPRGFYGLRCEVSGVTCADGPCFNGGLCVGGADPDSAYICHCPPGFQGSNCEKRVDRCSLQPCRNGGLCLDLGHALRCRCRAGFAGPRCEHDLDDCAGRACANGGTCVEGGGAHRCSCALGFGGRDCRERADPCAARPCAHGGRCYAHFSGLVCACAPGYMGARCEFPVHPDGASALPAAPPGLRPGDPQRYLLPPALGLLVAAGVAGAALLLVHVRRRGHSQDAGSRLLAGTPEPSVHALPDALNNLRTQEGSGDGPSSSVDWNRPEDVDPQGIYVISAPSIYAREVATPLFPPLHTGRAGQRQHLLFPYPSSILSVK

T2: DLL3 ECD (human, UniProt Q9NYJ7)
T2 construct: recombinant ECD aa 27-492; also called full length DLL3 ECD (aa 27-492, Cat #ab255797, Abcam); human DLL3.HIS
T2 sequence (antigen, looked up): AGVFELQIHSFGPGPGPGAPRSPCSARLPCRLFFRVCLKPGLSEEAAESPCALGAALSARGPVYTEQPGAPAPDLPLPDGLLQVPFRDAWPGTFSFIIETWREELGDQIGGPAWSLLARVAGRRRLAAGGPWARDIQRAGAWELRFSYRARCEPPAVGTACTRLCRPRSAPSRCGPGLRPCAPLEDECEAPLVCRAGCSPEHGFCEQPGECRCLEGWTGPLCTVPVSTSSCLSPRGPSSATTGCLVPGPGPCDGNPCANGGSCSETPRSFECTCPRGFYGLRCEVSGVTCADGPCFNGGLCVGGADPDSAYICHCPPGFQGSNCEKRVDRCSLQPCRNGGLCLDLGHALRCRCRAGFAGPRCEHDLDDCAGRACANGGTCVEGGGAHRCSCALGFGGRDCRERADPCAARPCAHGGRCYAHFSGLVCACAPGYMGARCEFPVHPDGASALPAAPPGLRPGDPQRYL

B1: 126_zu1 (Fc fusion)
chain: QVQLVESGGGLVQPGGSLRLSCAASGITFSMYSMSWFRQAPGQGLEAVAATTTFGSTNYADSVKGRFTISRDNSKNTLYLQMNSLRAEDTAVYYCAARFTSEEYWGQGTLVTVSSEPKSSDKTHTCPPCPAPEAEGAPSVFLFPPKPKDTLMISRTPEVTCVVVDVSHEDPEVKFNWYVDGVEVHNAKTKPREEQYNSTYRVVSVLTVLHQDWLNGKEYKCKVSNKALPSSIEKTISKAKGQPREPQVYTLPPSREEMTKNQVSLTCLVKGFYPSDIAVEWESNGQPENNYKTTPPVLDSDGSFFLYSKLTVDKSRWQQGNVFSCSVMHEALHNQYTQKSLSLSPG
notes: Humanized VHHFc
B2: Sc16.23 (antibody, V domains shown)
VH: QVTLKESGPGILQPSQTLSLTCSFSGFSLSTSNTGIGWIRQPSGTGLEWLAHIWWNDDKYYNPSLKSRLTISKETSNNQVFLKITNVDTADTASYFCVQIGRDYSNYAWYFDVWGAGTTVTVSS
VL: QIVLTQSPAIMSASPGEKVTLTCSASSSVSSRYLYWYQQKPGSSPKLWIYSTSNLASGVPARFSGSGSGTSYSLIISSMEAEDAASYFCHQWSNYPLTFGAGTKLELK

Assays:
[1] = target: T1, DLL3 on cells (SHP-77, NCI-H82, …); experiment: flow cytometry on DLL3 expressing SHP-77 cells
[2] = target: T2, DLL3 ECD; experiment: ELISA on coated full length DLL3 ECD (2 ug/ml), anti-hIgG-Fc-HRP, A450

| binding result [1] | EC50 (read off the curve) [2] | Binder |
| --- | --- | --- |
| binds | – | B1 |
| – | ~800 pM | B2 |
